Our source for the screen value values is PMC6105031, “The crystal structure of KSHV ORF57 reveals dimeric active sites important for protein stability and function” (PLoS Pathogens, 2018).

To fix the notation:
B1: FLAG-tagged full-length ORF57 [Kaposi's sarcoma-associated herpesvirus (KSHV, HHV8)] / itself (parent complex)
chain: MVQAMIDMDIMKGILEDSVSSSEFDESRDDETDAPTLEDEQLSEPAEPPADERIRGTQSAQGIPPPLGRIPKKSQGRSQLRSEIQFCSPLSRPRSPSPVNRYGKKIKFGTAGQNTRPPPEKRPRRRPRDRLQYGRTTRGGQCRAAPKRATRRPQVNCQRQDDDVRQGVSDAVKKLRLPASMIIDGESPRFDDSIIPRHHGACFNVFIPAPPSHVPEVFTDRDITALIRAGGKDDELINKKISAKKIDHLHRQMLSFVTSRHNQAYWVSCRRETAAAGGLQTLGAFVEEQMTWAQTVVRHGGWFDEKDIDIILDTAIFVCNAFVTRFRLLHLSCVFDKQSELALIKQVAYLVAMGNRLVEACNLLGEVKLNFRGGLLLAFVLTIPGMQSRRSISARGQELFRTLLEYYRPGDVMGLLNVIVMEHHSLCRNSECAAATRAAMGSAKFNKGLFFYPLS

The assay covers variants of B1. Description: in vitro crosslinking assay (DSS) with anti-FLAG Western blot; HEK293 cells, 0.5 μg plasmid for WT and 2 μg for mutant, DSS 50 μM for 30 min; lanes 14 (WT) and 16 (mutant); parent: 0.15. For orientation: In western blotting, separated proteins are transferred to a membrane and probed.
With MVQAMIDMDIMKGILEDSVSSSEFDESRDDETDAPTLEDEQLSEPAEPPADERIRGTQSAQGIPPPLGRIPKKSQGRSQLRSEIQFCSPLSRPRSPSPVNRYGKKIKFGTAGQNTRPPPEKRPRRRPRDRLQYGRTTRGGQCRAAPKRATRRPQVNCQRQDDDVRQGVSDAVKKLRLPASMIIDGESPRFDDSIIPRHHGACFNVFIPAPPSHVPEVFTDRDITALIRAGGKDDELINKKISAKKIDHLHRQMLSFVTSRHNQAYWVSCAAETAAAGGLQTLGAFVEEQMTWAQTVVRHGGWFDEKDIDIILDTAIFVCNAFVTRFRLLHLSCVFDKQSELALIKQVAYLVAMGNRLVEACNLLGEVKLNFRGGLLLAFVLTIPGMQSRRSISARGQELFRTLLEYYRPGDVMGLLNVIVMEHHSLCRNSECAAATRAAMGSAKFNKGLFFYPLS [chain 1 R270A, chain 1 R271A], the screen value stood at 0.07.
